The numbers were not newly measured in publication PMC4932920, which cites them from elsewhere.

The target in data set [1] is T1, His112 (UniProt position 113, VTLAAHLPAEF). Briefly: NMR.
Data set [2] deals with T2, His20 (UniProt position 21, GKVGAHAGEYG). Description: NMR.
Data set [3] concerns the target T3, His50 (UniProt position 51, HFDLSHGSAQV). Briefly: NMR.
For data set [4], the target named is T4, His72 (UniProt position 73, TNAVAHVDDMP). Briefly: NMR.
The target in data set [5] is T5, His89 (UniProt position 90, SDLHAHKLRVD). Description: NMR.
The target of data set [6] is T1, His112. Briefly: other (H/D exchange of individual histidine residues).
Data set [7] addresses T2, His20. The description is as above.
Data set [8] concerns the target T3, His50. Described as above.
Data set [9] addresses T4, His72. The data set is described as above.
The target of data set [10] is T5, His89. Described as above.
Another data set deals with His103 (UniProt position 104, FKLLSHCLLVT). Briefly: other (histidine H/D exchange).
The target in the next data set is His117 (UniProt position 118, CVLAHHFGKEF). Briefly: NMR.
Data set [11] addresses T6, His143 (UniProt position 144, ANALAHKYH--). Briefly: NMR.
In data set [12] the target is T7, His146 (UniProt position 147, LAHKYH-----). Description: NMR.
Data set [13] deals with T8, His77 (UniProt position 78, SDGLAHLDNLK). Description: NMR.
In data set [14] the target is T9, His97 (UniProt position 98, HCDKLHVDPEN). Briefly: NMR.
Data set [15] deals with T6, His143. Briefly: other (H/D exchange of individual histidine residues).
For data set [16], the target named is T7, His146. The description is as above.
The target in data set [17] is T8, His77. Described as above.
The target of data set [18] is T9, His97. Described as above.
The mark [19] stands for this setting: carbonmonoxy (CO-liganded) hemoglobin, R state.

One may read the pKa as the negative logarithm of the acid dissociation constant. Regarding “Hemoglobin A (adult human hemoglobin), alpha chain (Homo sapiens)”, the pKa with His112 [1] (setting [19]) is given as 7.53; with His112 [1] (deoxy hemoglobin, T state) it was 7.49; with His20 [2] (setting [19]), 7.08; with His20 [2] (deoxy hemoglobin, T state) it was 7.02; with His50 [3] (setting [19]) it was 6.90; with His50 [3] (deoxy hemoglobin, T state) it was 7.14. The pKa with His72 [4] (setting [19]) is 7.27; in the data set with His72 [4] (deoxy hemoglobin, T state), 7.47; in the data set with His89 [5] (setting [19]), 6.25; with His89 [5] (deoxy hemoglobin, T state), 6.80; with His112 [6] (setting [19]) it was 8.1; with His112 [6] (deoxy hemoglobin, T state) it was 8.1. Besides, the pKa in the data set with His20 [7] (setting [19]) was 7.0; with His20 [7] (deoxy hemoglobin, T state), 7.6; in the data set with His50 [8] (setting [19]), 7.1; in the data set with His50 [8] (deoxy hemoglobin, T state), 7.2; in the data set with His72 [9] (setting [19]), 7.1; with His72 [9] (deoxy hemoglobin, T state), 7.3. Moreover, the pKa is 5.6 with His89 [10] (setting [19]) and 7.2 with His89 [10] (deoxy hemoglobin, T state).

Consider “Hemoglobin A (adult human hemoglobin), alpha chain residue titrated (Homo sapiens)”, for which the pKa in the data set with His103 (setting [19]) is 7.1; with His103 (deoxy hemoglobin, T state) it was 7.1.

Regarding “Hemoglobin A (adult human hemoglobin), beta chain (Homo sapiens)”, the pKa with His117 (setting [19]) is given as 6.39; with His117 (deoxy hemoglobin, T state) it was 6.43; with His143 [11] (setting [19]) it was 5.57; with His143 [11] (deoxy hemoglobin, T state), 4.70; with His146 [12] (setting [19]), 6.42; in the data set with His146 [12] (deoxy hemoglobin, T state), 7.93. In addition, the pKa is given as 7.79 with His77 [13] (setting [19]); 7.47 with His77 [13] (deoxy hemoglobin, T state); 7.75 in the data set with His97 [14] (setting [19]); 8.01 with His97 [14] (deoxy hemoglobin, T state); 6.1 with His143 [15] (setting [19]); 5.6 with His143 [15] (deoxy hemoglobin, T state). In addition, the pKa is 7.0 in the data set with His146 [16] (setting [19]); 8.1 with His146 [16] (deoxy hemoglobin, T state); 7.8 with His77 [17] (setting [19]); 7.8 with His77 [17] (deoxy hemoglobin, T state); 6.4 with His97 [18] (setting [19]); 6.4 in the data set with His97 [18] (deoxy hemoglobin, T state).
